Measurements: publication PMC3099712

Tests used:
[1] = target: GFP-tagged mouse IGFLR1 on HEK293T cells (mouse); assay: radioligand binding
[2] = target: GFP-tagged human IGFLR1 on HEK293T cells (human); assay: radioligand binding

FLAG-IGFL1 (human insulin growth factor-like family member 1), sequence (Q6UW32 24-110): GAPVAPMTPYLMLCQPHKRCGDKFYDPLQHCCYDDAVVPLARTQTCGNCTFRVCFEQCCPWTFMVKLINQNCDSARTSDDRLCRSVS
FLAG-mIGFL (mouse insulin growth factor-like protein), sequence (Q6B9Z0 24-140): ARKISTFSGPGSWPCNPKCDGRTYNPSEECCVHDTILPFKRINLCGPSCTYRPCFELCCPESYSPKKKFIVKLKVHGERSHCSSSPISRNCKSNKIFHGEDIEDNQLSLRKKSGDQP

Substance | Kd [1] [nM] | Kd [2] [nM]
FLAG-mIGFL (mouse insulin growth factor-like protein) (from UniProt Q6B9Z0 24-140) (ligand) | 0.73 | –
FLAG-IGFL1 (human insulin growth factor-like family member 1) (from UniProt Q6UW32 24-110) (ligand) | – | 0.31
